Data reported in PMC6887548 (Nature, 2019).

T1: Mcm2 (yeast, UniProt P29469)
T1 sequence: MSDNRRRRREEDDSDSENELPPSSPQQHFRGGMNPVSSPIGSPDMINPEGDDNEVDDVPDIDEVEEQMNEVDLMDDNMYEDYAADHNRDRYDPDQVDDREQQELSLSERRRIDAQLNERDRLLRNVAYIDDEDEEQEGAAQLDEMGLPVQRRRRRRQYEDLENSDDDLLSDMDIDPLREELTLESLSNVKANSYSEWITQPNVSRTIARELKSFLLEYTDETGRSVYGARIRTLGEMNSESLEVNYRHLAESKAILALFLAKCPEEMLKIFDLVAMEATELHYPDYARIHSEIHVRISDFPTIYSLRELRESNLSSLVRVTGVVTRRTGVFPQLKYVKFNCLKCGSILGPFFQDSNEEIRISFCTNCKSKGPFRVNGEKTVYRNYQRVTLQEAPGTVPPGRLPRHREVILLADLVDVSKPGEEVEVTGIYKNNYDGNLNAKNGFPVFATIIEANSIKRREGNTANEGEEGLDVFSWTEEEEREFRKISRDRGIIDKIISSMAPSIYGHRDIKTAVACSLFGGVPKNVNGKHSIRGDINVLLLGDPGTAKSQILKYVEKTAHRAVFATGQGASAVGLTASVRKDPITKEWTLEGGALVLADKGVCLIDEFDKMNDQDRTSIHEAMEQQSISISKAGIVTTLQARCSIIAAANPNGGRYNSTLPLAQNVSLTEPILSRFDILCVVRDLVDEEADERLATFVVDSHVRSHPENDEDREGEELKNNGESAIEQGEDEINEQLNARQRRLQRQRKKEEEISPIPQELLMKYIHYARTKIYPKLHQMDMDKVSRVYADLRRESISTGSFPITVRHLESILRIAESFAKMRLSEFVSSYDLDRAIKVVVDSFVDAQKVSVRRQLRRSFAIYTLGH

T2: Mcm5 (yeast, UniProt P29496)
T2 sequence: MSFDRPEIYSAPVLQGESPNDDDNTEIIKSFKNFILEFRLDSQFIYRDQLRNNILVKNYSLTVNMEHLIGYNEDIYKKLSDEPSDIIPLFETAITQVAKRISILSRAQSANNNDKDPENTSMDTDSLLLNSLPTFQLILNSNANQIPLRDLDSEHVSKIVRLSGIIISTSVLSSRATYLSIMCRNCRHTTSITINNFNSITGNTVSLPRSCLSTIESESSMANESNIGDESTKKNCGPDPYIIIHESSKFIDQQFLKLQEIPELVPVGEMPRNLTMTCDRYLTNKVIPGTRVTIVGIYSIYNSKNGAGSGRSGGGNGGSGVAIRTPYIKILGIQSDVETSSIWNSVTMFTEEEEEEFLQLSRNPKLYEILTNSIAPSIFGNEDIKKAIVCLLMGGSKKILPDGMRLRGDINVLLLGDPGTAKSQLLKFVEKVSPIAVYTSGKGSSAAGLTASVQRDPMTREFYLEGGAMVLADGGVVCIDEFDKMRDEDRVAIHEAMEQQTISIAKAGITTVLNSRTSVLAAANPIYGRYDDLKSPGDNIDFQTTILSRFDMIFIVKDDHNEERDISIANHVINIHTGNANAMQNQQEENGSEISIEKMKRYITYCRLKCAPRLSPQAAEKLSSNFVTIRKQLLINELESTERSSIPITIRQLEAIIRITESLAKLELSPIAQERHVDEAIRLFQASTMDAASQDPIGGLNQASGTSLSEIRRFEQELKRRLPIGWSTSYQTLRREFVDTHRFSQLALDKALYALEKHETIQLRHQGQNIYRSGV

B1: Cdc6 (natural protein)
chain: MSAIPITPTKRIRRNLFDDAPATPPRPLKRKKLQFTDVTPESSPEKLQFGSQSIFLRTKALLQKSSELVNLNSSDGALPARTAEYEQVMNFLAKAISEHRSDSLYITGPPGTGKTAQLDMIIRQKFQSLPLSLSTPRSKDVLRHTNPNLQNLSWFELPDGRLESVAVTSINCISLGEPSSIFQKIFDSFQDLNGPTLQIKNMQHLQKFLEPYHKKTTFVVVLDEMDRLLHANTSETQSVRTILELFLLAKLPTVSFVLIGMANSLDMKDRFLSRLNLDRGLLPQTIVFQPYTAEQMYEIVIQKMSSLPTIIFQPMAIKFAAKKCAGNTGDLRKLFDVLRGSIEIYELEKRFLLSPTRGSLNSAQVPLTPTTSPVKKSYPEPQGKIGLNYIAKVFSKFVNNNSTRTRIAKLNIQQKLILCTIIQSLKLNSDATIDESFDHYIKAITKTDTLAPLQRNEFLEICTILETCGLVSIKKTKCKGKTKRFVDKIDVDLDMREFYDEMTKISILKPFLH
B2: Orc6 (natural protein)
chain: MSMQQVQHCVAEVLRLDPQEKPDWSSGYLKKLTNATSILYNTSLNKVMLKQDEEVARCHICAYIASQKMNEKHMPDLCYYIDSIPLEPKKAKHLMNLFRQSLSNSSPMKQFAWTPSPKKNKRSPVKNGGRFTSSDPKELRNQLFGTPTKVRKSQNNDSFVIPELPPMQTNESPSITRRKLAFEEDEDEDEEEPGNDGLSLKSHSNKSITGTRNVDSDEYENHESDPTSEEEPLGVQESRSGRTKQNKAVGKPQSELKTAKALRKRGRIPNSLLVKKYCKMTTEEIIRLCNDFELPREVAYKIVDEYNINASRLVCPWQLVCGLVLNCTFIVFNERRRKDPRIDHFIVSKMCSLMLTSKVDDVIECVKLVKELIIGEKWFRDLQIRYDDFDGIRYDEIIFRKLGSMLQTTNILVTDDQYNIWKKRIEMDLALTEPL

Assays:
[1] = molecular target: origin recognition complex (ORC) (yeast, UniProt P54784;P32833;P54790;P54791;P50874;P38826); experiment: cryo-EM 2D class averages
[2] = molecular target: T1, Mcm2; experiment: cryo-EM structure
[3] = molecular target: T2, Mcm5; experiment: cryo-EM structure

Binder | binding result [1] | binding result [2] | binding result [3]
B1 | binds | – | –
B2 | – | binds | binds
